Laboratory results as given in article PMC3582033 (Cell, 2011).

Test system: HP1γ binding to H3 peptide containing K9me3 as the sole modification
Test: TRIM33 competition with HP1γ for H3 peptide, K9me3 only
Details: 3-fold molar excess of TRIM33

competition with HP1γ: ineffective at competing with HP1γ
B1: TRIM33: Flag-tagged TRIM33 protein (protein)
chain: MAENKGGGEAESGGGGSGSAPVTAGAAGPTAQEAEPPLAAVLVEEEEEEGGRAGAEGGAAGPDDGGVAAASSSSAPAASVPAASVGSAVPGGAASTPAPAAAPAPAPAPAPAPAPAPAPAPAPGSSSGPPLGPPASLLDTCAVCQQSLQSRREAEPKLLPCLHSFCLRCLPEPERQLSVPIPGGSNGDVQQVGVIRCPVCRQECRQIDLVDNYFVKDTSEAPSSSDEKSEQVCTSCEDNASAVGFCVECGEWLCKTCIEAHQRVKFTKDHLIRKKEDVSESVGTSGQRPVFCPVHKQEQLKLFCETCDRLTCRDCQLLEHKEHRYQFLEEAFQNQKGAIENLLAKLLEKKNYVHFAATQVQNRIKEVNETNKRVEQEIKVAIFTLINEINKKGKSLLQQLENVTKERQMKLLQQQNDITGLSRQVKHVMNFTNWAIASGSSTALLYSKRLITFQLRHILKARCDPVPAANGAIRFHCDPTFWAKNVVNLGNLVIESKPAPGYTPNVVVGQVPPGTNHISKTPGQINLAQLRLQHMQQQVYAQKHQQLQQMRLQQPPAPIPTTTATTQQHPRQAAPQMLQQQPPRLISVQTMQRGNMNCGAFQAHQMRLAQNAARIPGIPRHSAPQYSMMQPHLQRQHSNPGHAGPFPVVSAHNPINPTSPTTATMANANRGPTSPSVTAIELIPSVTNPENLPSLPDIPPIQLEDAGSSSLDNLLSRYISGSHLPPQPTSTMNPSPGPSALSPGSSGLSNSHTPVRPPSTSSTGSRGSCGSSGRTAEKSAHSFKSDQVKVKQEPGTEEEICSFSGAVKQEKTEDGRRSACMLSSPESSLTPPLSTNLHLESELDTLTGLENHVKTEPTDISESCKQSGLSNLVNGKSPIRNLMHRSARIGGDGNSKDDDPNEDWCAVCQNGGDLLCCEKCPKVFHLTCHVPTLLSFPSGDWICTFCRDIGKPEVEYDCDNMQHSKKGKTAQGLSPVDQRKCERLLLYLYCHELSIEFQEPVPVSIPNYYKIIKKPMDLSTVKKKLQKKHSQHYQIPDDFVADVRLIFKNCERFNEMMKVVQVYADTQEINLKGDSEVAKAGKAVALYFEDKLSEIYSDRTFTPLPEFEQDEDDGEVTEDSDEDFIQPRRKRLKSDERPVHIK
